Measured values published in a protein production outcome set (Wang et al. 2014).

Assay: label from the status in PepcDB records

Sequence | protein production
MATIRKLRGRWQAQVRRRGVPPRAKSFDTKTAAERWARDLEAEADRSGWVADTRAAEKTTLGELLSRYANEVTPAKRGAVSEKARINSIVRCPISHRTLAKLTSSDVAGYRDERLKTVAPATVVRELNTISHAIEVATREWGLWVPRNPVKLVRRPPVPRGRTRRLKEGEEQRLLDACDRGRTPLLKPLIILAIETGMRRGELLDLRWEHIDLKRGVAHLPLTKNGDSRDVPLSCRAVQTLQELRSAGVRHDRVFSMTGNSVRLAFEHLRVRAGMSDLHFHDLRHEAISRLFEKGLNIAEVSAISGHRELKMLQRYTHLRAVDLVARLG | failed
MATKGLKMVTLALLDDKGVIVKGETGLSTNGVFPITDEMLGTKTANITNLSSAPTMIYGNDGQVDADIAKGTPSVAFAFNGLPVDIKNKLLGRVNDTKGGYTQGSIPKVAVLIQTTTIGTAKPQYVAFAAGKMNETAMNLQTNTNAVVRVDDALTFTAFSVSRWGGEAVKFFDGGDSKFTEDVMMKDVFNGYAGVGV | failed
MATKLVIAIVQDKDANYLSDQFIDQNVRATKLSTTGGFLQSGNTTFMIGIEEERVPEVLEIIKKASHTREEFMTPSVNMDVNMEGTTAYPIKVQVGGATVLVLPVDQFERF | not failed
MATLDERARPWARKSRWNGYAYEFLLFGLKQAWACLFGGLMLALLVGTKLFWPEAAPIARYDFLVVAAIAIQASLLALKLERWDEALVIFMFHVVGTIMELFKTAHGSWIYPEDSVLRIGGVPLFTGFMYACVGSYIARIWRLFDITFIRYPPFWTTHILAVLIYANFFTHHYMIDIRVGLFALSVLLFGRTWFVFTPDQTARRMPMLMGAVLVSLFIWFAENLGTFAGAWIYPNQADGWQMVPFEKMGAWYLLMLISFVLVTLVHPPVHACVARIRQGIWRAA | failed
MATLGANASLYSEQHRITYYECDRTGRATLTTLIDIAVLASEDQSDALGLTTEMVQSHGVGWVVTQYAIDITRMPRQDEVVTIAVRGSAYNPYFAYREFWIRDADGQQLAYITSIWVMMSQTTRRIVKILPELVAPYQSEVVKRIPRLPRPISFEATDTTITKPYHVRFFDIDPNRHVNNAHYFDWLVDTLPATFLLQHDLVHVDVRYENEVKYGQTVTAHANILPSEVADQVTTSHLIEVDDEKCCEVTIQWRTLPEPIQ | not failed
MATLSFGIAAAATTVRTIPRFNSRRSKITCEWDPKGVLGPAQTGHIARLEFKRRLERDSEAREAFQKQLREEKERRQALRQSRVVPDTAAELIEYFLDTEAQEIEYEIARLRGRLNDEFFAQIRLEIGQIRFAVTKTADIEDRLIELETLQKALEEGIEAYDKMQNELMTATNSLTKLLTSTDIKTTLLDMVEKNQINRSLLALLDENIANAYKGNQKEAGDYMEKIRSSVLKYLTV | failed
MATLTEDDVLEQLDAQDNLFSFMKTAHSILLQGIRQFLPSLFVDNDEEIVEYAVKPLLAQSGPLDDIDVALRLIYALGKMDKWLYADITHFSQYWHYLNEQDETPGFADDITWDFISNVNSITRNATLYDALKAMKFADFAVWSEARFSGMVKTALTLAVTTTLKELTP | not failed
MATPKFAEIKQYITGCIESGEWEENARVPSENQLAELFVCSRMTARRALTELTDNGVLERSQGLGTFVAGRKSQSSMLAIRNIADEIKDRGHGYSVQQLALEQVNATAPIAIALALDVGSPVFHSILVHCEQGVPLQVEERYVNPAFAPDYLVQDFSEQTPHEYLSQVAPLTEAHHTIEAIIASSELQQRLAIPATEPCLQISRRTWSRQGVVSFAKLVHPGSRFKLGGHLTFNK | failed
MATPSGIVRFPGAGCVVEFMQGNRPQIAWVMEEQGGRLRLFLPNRRETKLAAARLLPWAGPRYDGERSRDDMVALLEEHRQRRDTREADIQPLELWEMVQGEVEQASVEWFAELLGETPGVDEVAAMGRALLGCKTHFKFHPPDFEVYDAAKVEARMVEMEAARVREALVEAGQAFIKVLWDVHCRRRTMPLPSSSEMPPAEVAERLATLLRTRMADPDDHDSDSVWKQVTKGLPDDAHMPLHLAAAWGIVPVHHNFWMDRAGYAPGDEWAIDHVDEIDALMKRVEALREPLVDGTFISIDSSTTRDIDDAFDISPSPEGGWILRLVLASPVTGWDFDGPLDRAVLRRATSIYLPERSHHMMPETLGTDAYSLLAGQDRPALLVTFDIAPDGSLRSTTPATGWVRLAANLTYTECEACLTGEGDAGRAAPHADRLALADALARVRQQLRVAAGAVIIERDDPKVTLEGEGCAVKVHVAPPDETPRAQLLVSEMMILANAAIASWGAERGITLLHRTQDVGIPREYAGVWNQPHDIARVVKALAPAHLEPVAKPHAGIAVPAYSPVTSPLRRYPDLVNEAQVIHYLTHGTPRWSREEVEAMLPLLGARLDAAGQVQRFRPRYWKLFYIRQQGDKAWHEAVVTEENDAFVTISLPEVQIFVRGRRSTFGDKVYPGQHFNVRLGKVHPLNNEIQIVDAMEG | failed
MATPTQTPTKAPEEPDPFYYDYNTVQTVGMTLATILFLLGILIVISKKVKCRKADSRSESPTCKSCKSELPSSAPGGGGV | not failed
MATRAPASTLRQIPSGIWMLGCVSLLMDISSEIIHSLLPVFMVTTLGASALAVGLIEGAAEATALIVKVFSGVLSDYLGKRKALAVLGYGLGALSKPLFAVAPGVGTILAARLSDRIGKGIRGAPRDALVADIAPAHLRGAAFGLRQALDTVGAFLGPLIAIGLMMLWANDFRAIFWVAVVPGVLSVALLAFGVKEPQTHTGDKRVNPIRRANLARLGPAYWGVVAVGTAFALARFSEAFLILRVQQEGLPLFMAPLVLVTMNAVFAVTAYPFGKLADNCSHDKLLVAGLAVLIVADTVLAVGSHWSIALVGVALWGLHMGMTQGLLATMVADAAPADLRGTAFGVFNLASGLALLAASVMAGWLWDRHGAAATFHAGAGFCVLTIALLIHRLRNRPASGAATR | failed
MATSAKTLQQRMGIIALTWPIFIETLLQSLLGISDIFMLSHYSDNAVAAVGLTTQLMFFMMVMSMMVSTGASILISQNNGAGRTQEATDIGVASVALSLGLAVVMGAAMFFCAHGIIGLFELEPKVAGYGYDYLLICGSLSIGLVMNIAFAAILRSYGFTRSAMLVTLSTGLMNVLGNYIALYSPFGLPVYGVTGVAISTVTSQLMGALIMLAVIRSKHIPLPMQRLNSLPRSTYWSVMRIGLLNAGEMLSYNVAQMTIIYFISQMGTLSLTAYTYGLNISRFIYCFSVALGQAAQIQTGYYVGKQWFDEITVRVQKYCLVGFIVSLAIVLIFFWQRFTIVGWLSENPEVIQLTALLLLGSIALETGRVFNLVIISALKGAGDVAFTVRVGLFSMWGIGVLLAWFFGLYLGYGVLAAWLAVAADEWVRGLIMVQRWRSGRWQRFTRIPPATSA | failed
MATSRTQRDVWVYVGIGAMVSALVLFSLVPLVMGLWQPRPAADGVVNGGTPLESQALGYQLVLEREPDNVNALQGLLEIRLQQKNLAAAIAPLERLGQIRTDQVQYRILLAQLKTQLEDNAGAAKVYREILTQSPHNIQALKGLSGLYAQQERPAEAVAIVQNAITQAIKAQTGAPGTVPPDQLTSLQLLLGEIYLSQNRPDQAIAIYEAASKVNGNDFRPVLAQAQVMAQTGKVKEADPFFQQAIMLAPVQYKDPIKNIALQVTNQALANQNGAPETSIPSPAPILKSE | failed
MATTKKKPIHVNVDENLKEEAEQLFDDLGLNMTSAITIFLKQSINEQAIPFMINKGNKETLQALKDIKEGNVHGGFSSVEDLMEDLNALEHHHHHH | not failed
MATVEEIEKYCRNCVSRDFVNGKGLVCKRTRELPDFDEECENFEKDEELLKMAPPKPDDFPVSMTEEELLAEENLPKGVLYASVACILGAVAWSLISVSTGLQMGYMAIGVGFLVGFAMRQGKGIRPVFGLLGAALALISCVLGDFLSIIGFAAKDYDMTFFEVLAGVDYGEIFSVMVKNVVSMSALFYGIAVYEGYKLSFRAQKHPVGGKI | failed
MAVARHETGPFATVSALASQVHPVFMLPPLATSLFGGLLSGGFWPPVAVLHAGAMFFAVYTAHVKDGYVDFHVRGEDDDHPLTGAGCRMALVGAGVGFALCTAAIWLLVGPGAALLTLPTWIIGYTHAPQLDMNPVGATMGYPAGIALALLGGYYAQVTTLTPRAVGLAAVFLLLLTGIKIIDDEQDYDYDRSIQKRTVAVVLGHQRARQLALGLFGVALLGIVGLSVALPGIPPSAAAAALVFGAVAAIAQRGDPETATMLLIRGSYLLLAVLVTAVWFRPLA | failed
MAVDDSEEGKPAESEAPLDLLQDWEHARAHAVPFSDSLLTECILVDQECVTNTKIKQEVNASSGCNTTPDSNTQDSDKIDYIESMDVCSNVEIESTEDSIVTGLNSGNAEDVDMTPGWRRKRNQKSKKSYIGTKDVLDQTLDKDIPLNKQNRRFPITARPVKRECVKKYERETFENGNERVYSTSSPRGRVYLLNDAAKL | failed
MAVESAAVGVFDSGVGGLSVLREIRARLPSESLLYVADNAHVPYGEKSAEYIRERCERIGDFLLEQGAKALVLACNTATAAAAAELRERYPQVPLVAMEPAVKPAAAATRNGRVGVLATTGTLKSARFAALLDRFASDVQVFTQPCPGLVERIEAGDLYGPQTRALLERLLAPILEQGCDTLILGCTHYPFVKPLLAELIPAEMAVIDTGAAVARQLERVLSARALLASGQAATPRFWTSALPEEMERILPILWGSPESVGKLVV | failed
MAVEVVYRSSRDPERLFMDKAEADRHDKMLELAERLAEVLHKAVPSLTEQQVEEAGIYMAKNRDVFARAFKSQPDALAELLEGTAAE | not failed
MAVQENLLLGAKASKNATLTLVFLSILKGVVGFYSGSASLIADAIHTSLDIFTSLAVWIGLKLSMRGSEEKFPYGYYKADNLVSLFVSIIILFSGVELVREALLNIASPVEIKLQGIALGTAVFSVIAMYALSQYKFKVGKQIDSQALIADALHSYTDVFSSLIVAITIIGSLLGVLWLDSAGVLVISLMIFKLGIGMAKDSILTLMDAWLDKDSIERIRQNVGSIQGVKTVDEIRLRKSGLVVFGEIEIEIEGDASLKRVEMLFEEIEKTVKNEVKNLEHLVVNVKPEKISVMKIAVPVLMQEGLHSKVSRHFSKAPYFIFIELENNDIISWDVSENPAAGLEKKKGLKAAEFLKDQGVNVLIAGEIGEAPFHTLRDNFVKLLQMPEEIEDVEQVVKKVSELNTLTAPTE | failed
MAVTRRLLMAVVGLFSLLVYFTAAYVGYLLLLPVWDSRPSPLMAALFVLGTAIALGVVNYWAATAQLKRSLNAVELPRARAPEAYHRLDALVDQMNVETPTLLLAELPVPNAFAIGGGTGTIVVDRRLFRLLSAAEFEGLLAHELAHLETRDALVQTVAYSFVQTLVGLIGLALFPIVVLTGGIARSLALLRGDPSSWSRSWLGRAQRYSLQVVAGLGFAVTLLLLGYSRRRELAADDRAVEITGNPVGLARALAKIEQASTPDPGLLRQVYVHSEADNELSRLLSTHPPIDERMQRLQDRAQYGNFTKSSERPSSRR | failed
MAVYANTSVQDFYEFWLEEVKKKSLSYNSYYSFKKTVQNYILPLYGRLSMGKLRKNHVKRIYKKTYETSPSVAKIVKTVLTTSFKYALRYGYVEEDYVTGLKWNRVILEHHHHHH | failed
MAWNQPGNNGQDRDPWGSSKPGGNSEGNGNKGGRDQGPPDLDDIFRKLSKKLGGLGGGKGTGSGGGSSSQGPRPQLGGRVVTIAAAAIVIIWAASGFYTIKEAERGVVTRFGKFSHLVEPGLNWKPTFIDEVKPVNVEAVRELAASGVMLTSDENVVRVEMNVQYRVTNPEKYLYSVTSPDDSLRQATDSALRGVIGKYTMDRILTEGRTVIRSDTQRELEETIRPYDMGITLLDVNFQAARPPEEVKAAFDDAIAARENEQQYIREAEAYTNEVQPRANGQAQRILEEARAYKAQTILEAQGEVARFAKLLPEYKAAPEITRERLYIETMEKVLGNTRKVLVNDKGGNLMVLPLDQMLKGGNAPAAKSDNGASNLLRLPPASSSTTSGASNTSSTSQGDIMDQRRANAQRNDYQRQGE | failed
MAYDSRLPEQRDPATDPSANYDYQGDSVNRPDLVSALEQRVDGDVRFDTYTRELFATDASAYEQLPIGVVSPVSTEDVVAVMEYCAAEDIPVLPRGGGTSLAGQAVNEAVVLDFKRYMDE | not failed
